From patent US20250268941A1 (AUTOLUS, published 2025)
Values belong to the molecule of their own block, whether it stands above or below them.

What was measured:
[1] = target: BCMA on the cell surface (SupT1.BCMAhigh, SupT1.BCMAlow, MM.1s, JeKo-1 cells) (human) (UniProt Q02223); test: cell-based or functional assay
BCMA-Avi = target: T1, BCMA-Avi (Homo sapiens, UniProt Q02223, biotinylated at the AviTag (implied by detection with streptavidin-APC); position not given); test: flow cytometry of live CD3+ T cells transduced with CAT-41BB-ζ alone, stained with BCMA-AviTag plus streptavidin-APC; the staining concentration is not given [a]
T1 construct: soluble recombinant staining reagent; also called BCMA-AviTag; BCMA-Avi/Strep-APC
T1 sequence (recombinant BCMA with AviTag, looked up): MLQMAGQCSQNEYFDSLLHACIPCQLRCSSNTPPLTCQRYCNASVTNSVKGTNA

soluble BCMA ectodomain [2] = target: T2, soluble BCMA ectodomain (human, UniProt Q02223 1-54); test: SPR, BCMA 50 nM serially diluted to 0.19 nM
T2 construct: extracellular domain
T2 sequence (looked up): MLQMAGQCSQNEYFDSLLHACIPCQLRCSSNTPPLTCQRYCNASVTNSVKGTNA
Method: (§1) FIG. 6—Surface plasmon resonance sensogram of binding kinetics between D8 IgG and BCMA is shown. BCMA starting concentration was 50 nM with serial dilutions to 0.19 nM.
(§2) D8 IgG binding to soluble BCMA ectodomain was also studied using surface plasmon resonance (FIG. 6).

soluble BCMA ectodomain [3] = target: T2, soluble BCMA ectodomain; test: SPR, soluble BCMA ectodomain as analyte
Method: as §1, §2

Molecule: bb2121 CAR
viable SupT1 BCMAlow targets remaining, 24 h co-culture, E:T 1:8 [1]: 21.1%

Molecule: LCAR-B38M CAR
viable SupT1 BCMAlow targets remaining, 24 h co-culture, E:T 1:8 [1]: 25.5%

binding result (BCMA-Avi): no binding
B1: CAT-41BB-ζ CAR (other)
chain: QVQLQQSGPELVKPGASVKISCKASGYAFSSSWMNWVKQRPGKGLEWIGRIYPGDEDTNYSGKFKDKATLTADKSSTTAYMQLSSLTSEDSAVYFCARSLLYGDYLDYWGQGTTLTVSSGGGGSGGGGSGGGGSQIVLTQSPAIMSASPGEKVTMTCSASSSVSYMHWYQQKSGTSPKRWIYDTSKLASGVPDRFSGSGSGTSYFLTINNMEAEDAATYYCQQWNINPLTFGAGTKLELKRSDPTTTPAPRPPTPAPTIASQPLSLRPEACRPAAGGAVHTRGLDFACDIYIWAPLAGTCGVLLLSLVITLYCKRGRKKLLYIFKQPFMRPVQTTQEEDGCSCRFPEEEEGGCELRVKFSRSADAPAYQQGQNQLYNELNLGRREEYDVLDKRRGRDPEMGGKPRRKNPQEGLYNELQKDKMAEAYSEIGMKGERRRGKGHDGLYQGLSTATKDTYDALHMQALPPR
notes: Expressed on primary human T cells; also called CAT19 CAR; CAT19CAR using Campana architecture

koff (soluble BCMA ectodomain [2]): 0.00433 s⁻¹ | Kd (soluble BCMA ectodomain [3]): 0.126 nM
B2: D8 IgG (antibody, V domains shown)
VH: EVQLVESGGGLVQPGRSLKLSCAASGFIFSDYNMAWVRQAPKKGLEWVATIIYDGSSTNHGDSVKGRFTISRDNAKSTLYLQMDSLRSEDTATYYCATRPGPFAYWGQGTLVTVS
VL: DVVLTQTPPTLSATIGQSVSISCRSSQSLLHSNGNTYLHWLLQRPGQSPQFLIYLVSGLGSGVPNRFSGSGSGTDFTLKISGVEAEDLGIYYCVHGTHAWTVGGGTKLELK
